How the values were obtained:
[1] = molecular target: T1, soluble His-tagged hepsin comprising the entire extracellular domain of human hepsin (Arg45-Leu417) (human, UniProt P05981 45-417); experiment: enzyme inhibition, 0.5 nM hepsin, chromogenic substrate S2366; apparent Ki (Ki*) from tight-binding fit
T1 construct: range 45-417; also called soluble hepsin; recombinant soluble hepsin; not shown: His tag
Experimental: (§1) After substrate addition, the linear rates of the increase in absorbance at 405 nm was measured on a kinetic microplate reader (Molecular Devices, Sunnyvale, Calif.).

[2] = molecular target: T2, matriptase protease domain (UniProt Q9Y5Y6 615-855, limits assumed); experiment: enzyme inhibition, 0.5 nM matriptase, chromogenic substrate S2765; apparent Ki (Ki*) from tight-binding fit
T2 construct: domain: protease domain
T2 sequence (looked up): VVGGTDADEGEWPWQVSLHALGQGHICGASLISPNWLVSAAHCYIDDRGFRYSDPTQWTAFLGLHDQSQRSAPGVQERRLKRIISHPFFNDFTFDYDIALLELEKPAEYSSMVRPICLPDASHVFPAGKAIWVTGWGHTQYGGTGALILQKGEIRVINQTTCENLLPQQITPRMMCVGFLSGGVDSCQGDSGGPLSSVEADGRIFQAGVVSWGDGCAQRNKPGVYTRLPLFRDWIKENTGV
Experimental: as §1

T1 sequence (P05981 45-417 limits assumed): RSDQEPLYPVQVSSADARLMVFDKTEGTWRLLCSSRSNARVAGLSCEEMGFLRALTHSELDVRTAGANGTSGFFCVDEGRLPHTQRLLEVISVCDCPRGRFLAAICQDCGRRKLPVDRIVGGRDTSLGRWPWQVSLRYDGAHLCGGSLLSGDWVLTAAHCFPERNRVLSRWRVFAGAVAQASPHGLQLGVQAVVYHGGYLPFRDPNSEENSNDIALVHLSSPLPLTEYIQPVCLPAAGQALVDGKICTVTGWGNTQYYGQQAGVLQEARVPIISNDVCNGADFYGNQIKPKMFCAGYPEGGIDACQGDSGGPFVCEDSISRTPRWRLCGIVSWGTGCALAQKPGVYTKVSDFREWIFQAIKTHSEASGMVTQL

Ki [1]: 0.26 nM | Ki [2]: 0.85 nM
B1: soluble HAI-2 (hepatocyte growth factor activator inhibitor-2) (other, UniProt O43291 28-197, looked up)
chain: ADRERSIHDFCLVSKVVGRCRASMPRWWYNVTDGSCQLFVYGGCDGNSNNYLTKEECLKKCATVTENATGDLATSRNAADSSVPSAPRRQDSEDHSSDMFNYEEYCTANAVTGPCRASFPRWYFDVERNSCNNFIYGGCRGNKNSYRSEEACMLRCFRQQENPPLPLGSK
